Where two headings read alike, the source gives them in different places.

The record followed here is paper PMC9328131.

Holding throughout (assay): EMSA
Background: In EMSA bound probe runs differently from free probe, usually more slowly.

Data set [1] deals with T1, Ecm16 (Streptomyces lasalocidi, UniProt Q0X0A9 1-792).
T1 sequence: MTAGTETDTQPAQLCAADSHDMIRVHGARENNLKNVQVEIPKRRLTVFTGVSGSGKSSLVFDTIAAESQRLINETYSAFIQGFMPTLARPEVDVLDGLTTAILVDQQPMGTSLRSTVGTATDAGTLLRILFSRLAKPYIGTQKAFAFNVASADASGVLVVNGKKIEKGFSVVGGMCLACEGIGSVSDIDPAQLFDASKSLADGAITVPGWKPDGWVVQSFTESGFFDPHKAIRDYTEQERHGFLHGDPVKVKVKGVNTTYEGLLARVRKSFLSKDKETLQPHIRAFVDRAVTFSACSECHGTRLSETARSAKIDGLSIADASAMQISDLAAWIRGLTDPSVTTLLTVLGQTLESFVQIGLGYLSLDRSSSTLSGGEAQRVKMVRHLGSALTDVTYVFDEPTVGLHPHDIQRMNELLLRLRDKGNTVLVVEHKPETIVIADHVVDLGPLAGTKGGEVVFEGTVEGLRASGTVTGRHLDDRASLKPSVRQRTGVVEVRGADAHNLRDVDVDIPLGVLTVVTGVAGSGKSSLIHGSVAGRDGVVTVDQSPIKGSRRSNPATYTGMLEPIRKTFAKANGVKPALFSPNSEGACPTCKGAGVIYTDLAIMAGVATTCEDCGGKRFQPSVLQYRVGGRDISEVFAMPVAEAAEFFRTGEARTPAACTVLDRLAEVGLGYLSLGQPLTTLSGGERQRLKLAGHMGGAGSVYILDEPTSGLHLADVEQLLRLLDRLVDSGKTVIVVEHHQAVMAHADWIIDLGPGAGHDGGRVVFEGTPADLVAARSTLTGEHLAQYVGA

The target in data set [2] is T1, Ecm16. This is another data set of the same source.
Data set [3] has as its target T1, Ecm16. This is another data set of the same source.

B1: 32-mer dsDNA (dsDNA)
DNA 1: AGTGATCAGTGGTTACGTAACCACTGATCACT
DNA 2: B1 DNA 1
As a reminder, the Kd is the equilibrium constant for the complex coming apart. Read a high Kd as a looser complex. As to B1, the Kd is 34.8 nM in the data set with Ecm16 [1] and 20.6 nM in the data set with Ecm16 [2].
Turning to AGTGATCAGTGGTTACGTAACCACTGATCACT (ssDNA) [32-mer ssDNA], the affinity with Ecm16 [3], expressed as Kd, was 39.6 nM.
